Tests used:
Assay in all cases: fibrinogen 15mer peptide array
FIBA 218-232 = target: T1, FIBA 218-232
T1 sequence (peptide): FKSQLQKVPPEWKAL

FIBA 507-521 = target: T2, FIBA 507-521
T2 sequence (peptide): FPGFFSPMLGEFVSE

FIBA 514 528 = target: T3, FIBA 514 528
T3 sequence (peptide): FSPMLGEFVSETESR

FIBA 602-616 = target: T4, FIBA 602-616
T4 sequence (peptide): RGHAKSRPVRGIHTS

FIBG 123-137 = target: T5, FIBG 123-137
T5 sequence (peptide): NLKEKVAQLEAQCQE

FIBG 15-29 = target: T6, FIBG 15-29
T6 sequence (peptide): FGSYCPTTCGIADFL

FIBG 202-216 = target: T7, FIBG 202-216
T7 sequence (peptide): DFKKNWIQYKEGFGH

FIBG 206-220 = target: T8, FIBG 206-220
T8 sequence (peptide): NWIQYKEGFGHLSPT

FIBG 214-228 = target: T9, FIBG 214-228
T9 sequence (peptide): FGHLSPTGTTEFWLG

FIBG 287-301 = target: T10, FIBG 287-301
T10 sequence (peptide): GDAFDGFDFGDDPSD

FIBG 303-317 = target: T11, FIBG 303-317
T11 sequence (peptide): FFTSHNGMQFSTWDN

FIBG 335-349 = target: T12, FIBG 335-349
T12 sequence (peptide): WMNKCHAGHLNGVYY

FIBG 7-21 = target: T13, FIBG 7-21
T13 sequence (peptide): NCCILDERFGSYCPT

[1] = substrate: T14, FIBB 107-121
T14 sequence (peptide): VSQTSSSSFQYMYLL

[2] = substrate: T15, FIBB 139-153
T15 sequence (peptide): VNEYSSELEKHQLYI

[3] = substrate: T16, FIBB 191-205
T16 sequence (peptide): EYCRTPCTVSCNIPV

[4] = substrate: T17, FIBB 235-249
T17 sequence (peptide): PYRVYCDMNTENGGW

[5] = substrate: T18, FIBB 258-262
T18 sequence (peptide): SVDFGRKWDPYKQGF

[6] = substrate: T19, FIBB 283-297
T19 sequence (peptide): KNYCGLPGEYWLGND

[7] = substrate: T20, FIBB 315-329
T20 sequence (peptide): EDWKGDKVKAHYGGF

[8] = substrate: T21, FIBB 319-333
T21 sequence (peptide): GDKVKAHYGGFTVQN

[9] = substrate: T22, FIBB 391-405
T22 sequence (peptide): RKQCSKEDGGGWWYN

[10] = substrate: T23, FIBB 395-409
T23 sequence (peptide): SKEDGGGWWYNRCHA

[11] = substrate: T24, FIBB 407-421
T24 sequence (peptide): CHAANPNGRYYWGGQ

[12] = substrate: T25, FIBB 415-429
T25 sequence (peptide): RYYWGGQYTWDMAKH

[13] = substrate: T26, FIBB 427-431
T26 sequence (peptide): AKHGTDDGVVWMNWK

[14] = substrate: T27, FIBB 63-77
T27 sequence (peptide): GGCLHADPDLGVLCP

[15] = substrate: T28, FIBB 71-85
T28 sequence (peptide): DLGVLCPTGCQLQEA

B1: antibody G or 45-C1C3 antibody (antibody, V domains shown)
VH: EVQLVESGGGAVQPGRSLRLSCAASGVSFSNIGMHWVRQAPGKGLEWVALISSDGRHTHYADSVKGRFTISRDNSENTLYLQINGLRADDTAVYYCAKGLDTRARYMGKFYTFDYWGQGTLVTVSS
VL: DIQLTQSPSSLSASVGDRVTITCRASQNIGVNLNWYQQRPGKGPKLLVSSTFSLQSGVPSRFSASGAGTNFTLTISSLQPEDYVTYYCQQSYSSPFTFGPGTKVDIK
For B1, the signal intensity (RLU) (FIBA 218-232) was 6880 RLU, the signal intensity (RLU) (FIBA 507-521) was 3370 RLU and the signal intensity (RLU) (FIBA 514 528) was 5030 RLU. For the same binder, the signal intensity (RLU) (FIBA 602-616) was 2570 RLU, the signal intensity (RLU) (FIBG 123-137) was 3130 RLU and the signal intensity (RLU) (FIBG 15-29) was 3150 RLU. It also gave a signal intensity (RLU) (FIBG 202-216) of 9080 RLU, a signal intensity (RLU) (FIBG 206-220) of 6580 RLU and a signal intensity (RLU) (FIBG 214-228) of 8260 RLU. For the same binder, the signal intensity (RLU) (FIBG 287-301) was 11400 RLU, the signal intensity (RLU) (FIBG 303-317) was 6750 RLU and the signal intensity (RLU) (FIBG 335-349) was 50000 RLU. It also gave a signal intensity (RLU) (FIBG 7-21) of 5760 RLU, a signal intensity (RLU) [1] of 2930 RLU and a signal intensity (RLU) [2] of 6790 RLU. It also gave a signal intensity (RLU) [3] of 2790 RLU, a signal intensity (RLU) [4] of 3610 RLU and a signal intensity (RLU) [5] of 6910 RLU. The signal intensity (RLU) [6] was 8780 RLU, the signal intensity (RLU) [7] was 5070 RLU and the signal intensity (RLU) [8] was 2670 RLU. It also gave a signal intensity (RLU) [9] of 2980 RLU, a signal intensity (RLU) [10] of 3470 RLU and a signal intensity (RLU) [11] of 9200 RLU. The signal intensity (RLU) [12] was 12900 RLU, the signal intensity (RLU) [13] was 2640 RLU and the signal intensity (RLU) [14] was 2780 RLU. It also gave a signal intensity (RLU) [15] of 2550 RLU.

From patent US20230331869A1
